We go through one sequence from patent US20100316989A1, “METHOD FOR SCREENING AN […] OF HBV PROLIFERATION BY USING THE INTERACTION BETWEEN HBV CAPSID AND SURFACE PROTEINS BASED ON CELLULAR IMAGING” (KOREA INSTITUTE OF SCIENCE AND TECHNOLOGY, priority 2007, published 2010).

Test [1] has as its target interaction between capsid protein and PreS protein (Hepatitis B virus genotype D subtype ayw, UniProt P03146, F97I/I116L/INS152DR/S87N/V74N). The conditions noted are these: serially diluted peptide; Trx-PreS fixed on plate, purified capsid protein; FIG. 5.
In test [2] the test system is interaction between PreS and capsid protein (PreS-PH / Capsid-GFP) in HEK293T cells. It is filed as cell-based. The conditions noted are these: 50 μM peptide; transfected HEK293T cells; FIG. 6.

As to “RQPTPISPPLRDSHPQAMQWNS (deleted L4b peptide) [PreS derived peptide, PreS derived peptide (ΔL4b peptide; ID; NO: 21]”, in test [1], the “inhibition of the interaction between capsid protein and PreS protein (OD490)” value was “inhibited the interaction between capsid protein and PreS protein dose-dependently”. Further, the “location of GFP fluorescence image of Capsid-GFP fusion protein (inhibition of interaction)” value in test [2] is given as “located not in cell membrane but in cytoplasm of cells”.
